Assay results published in paper PMC6123407.

Assays:
Experiment in all cases: purified protein
purified protein [1] = substrate: NCCCCN; settings: 100 μM p-coumaroyl-CoA, 50 mM Tris-HCl pH 7.5, room temperature, apparent Km, acyl-acceptor
purified protein [2] = substrate: N=C(N)NCCCCN; settings: 100 μM p-coumaroyl-CoA, 50 mM Tris-HCl pH 7.5, room temperature, apparent Km, acyl-acceptor
purified protein [3] = substrate: CC(C)(COP(=O)(O)OP(=O)(O)OC[C@H]1O[C@@H](n2cnc3c(N)ncnc32)[C@H](O)[C@@H]1OP(=O)(O)O)[C@@H](O)C(=O)NCCC(=O)NCCSC(=O)/C=C/c1ccc(O)cc1; settings: 100 μM agmatine sulphate, 50 mM Tris-HCl pH 7.5, room temperature, apparent Km, acyl-donor
purified protein [4] = substrate: COc1cc(/C=C/C(=O)SCCNC(=O)CCNC(=O)[C@H](O)C(C)(C)COP(=O)(O)OP(=O)(O)OC[C@H]2O[C@@H](n3cnc4c(N)ncnc43)[C@H](O)[C@@H]2OP(=O)(O)O)ccc1O; settings: 100 μM agmatine sulphate, 50 mM Tris-HCl pH 7.5, room temperature, apparent Km, acyl-donor

B1: HvACT1 (agmatine coumaroyltransferase, ACT) (Hordeum vulgare) (protein)
chain: MKITVHSSKAVKPEYGACGLAPGCTADVVPLTVLDKANFDTYISVIYAFHAPAPPNAVLEAGLGRALVDYREWAGRLGVDASGGRAILLNDAGARFVEATADVALDSVMPLKPTSEVLSLHPSGDDGPEELMLIQVTRFACGSLVVGFTTQHIVSDGRSTGNFFVAWSQATRGAAIDPVPVHDRASFFHPREPLHVEYEHRGVEFKPCEKAHDVVCGADGDEDEVVVNKVHFSREFISKLKAHASAGAPRPCSTLQCVVAHLWRSMTMARGLDGGETTSVAIAVDGRARMSPQVPDGYTGNVILWARPTTTAGELVTRPVKHAVELISREVARINDGYFKSFIDFANSGAVEKERLVATADAADMVLSPNIEVDSWLRIPFYDMDFGGGRPFFFMPSYLPVEGLLILLPSFLGDGSVDAYVPLFSRDMNTFKNCCYSLD
- Km (purified protein [1]): 7,200 ± 530 μM
- kcat (purified protein [1]): 4.7 s⁻¹
- kcat/Km (purified protein [1]): 650 M⁻¹ s⁻¹
- Km (purified protein [2]): 1.7 ± 0.13 µM
- kcat (purified protein [2]): 38 s⁻¹
- kcat/Km (purified protein [2]): 2.2e+07 M⁻¹ s⁻¹
- Km (purified protein [3]): 1.1 ± 0.12 µM
- kcat (purified protein [3]): 39 s⁻¹
- kcat/Km (purified protein [3]): 3.5e+07 M⁻¹ s⁻¹
- Km (purified protein [4]): 2.0 ± 0.14 µM
- kcat (purified protein [4]): 18 s⁻¹
- kcat/Km (purified protein [4]): 9e+06 M⁻¹ s⁻¹
